Results published in patent publication US20040077542A1 (University of Texas, published 2004).

Target: T1, GST-fusion protein of the second BIR (baculoviral IAP repeat) motif of XIAP (UniProt P98170 124-240)
T1 construct: also called recombinant IAP fragment; BIR2; not shown: glutathione S-transferase (GST) fusion partner; order of GST and BIR2 not
Assay: GST pull-down, radiolabeled peptide on GST-BIR2 glutathione resin (Example 9)

T1 sequence (P98170 124-240): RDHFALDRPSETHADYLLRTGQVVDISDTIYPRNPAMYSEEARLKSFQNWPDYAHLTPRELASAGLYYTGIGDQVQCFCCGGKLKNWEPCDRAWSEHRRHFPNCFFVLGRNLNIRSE

- binding result: no binding
Binder: H-KQAIPVA-OH (also called negative control Smac-7R) [Smac-7R: NH2-KQAIPVA-COOH]
